Data on 14 molecules can be found in patent publication US20190352387A1 (Chugai, published 2019).

One may read the koff as the first-order rate constant of dissociation.

Residue numbers refer to the chain shown, from its start.

Assay [1] concerns the target T1, Recombinant human sclerostin (human, UniProt Q9BQB4 24-213).
T1 construct: Whole entry as named; Secreted recombinant protein purified from FreeStyle293-F conditioned medium; also called human-SOST; Human SOST
T1 sequence: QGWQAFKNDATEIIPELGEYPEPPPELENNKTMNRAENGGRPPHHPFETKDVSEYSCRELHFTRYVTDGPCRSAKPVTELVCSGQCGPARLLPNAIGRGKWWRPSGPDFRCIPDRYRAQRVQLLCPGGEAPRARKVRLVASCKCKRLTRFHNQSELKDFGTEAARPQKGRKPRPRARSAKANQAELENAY
Briefly: SPR; captured antibody (SG1/SK1 constant regions), recombinant human SOST as analyte; response normalised by the capture level of the antibody [panel B-A-B]. On the technique in general: Surface plasmon resonance follows binding to a sensor surface in real time, without labels.

Assay [2] concerns the target T1, Recombinant human sclerostin. Briefly: SPR (Biacore), dissociation at pH 5.8 of complex formed at pH 7.4.
Method: (§1) The affinity of anti-sclerostin variants binding to human, cynomolgus monkey (cyno), rat, or mouse sclerostin at pH 7.4 and pH 5.8 were determined at 37 degrees C. using Biacore T200 instrument (GE Healthcare). Anti-human Fc (GE Healthcare) was immobilized onto all flow cells of a CM4 sensor chip using amine coupling kit (GE Healthcare). All antibodies and analytes were prepared in ACES pH7.4 or pH 5.8 buffer containing 20 mM ACES, 150 mM NaCl, 1.2 mM CaCl₂, 0.05% Tween 20, 0.005% NaN₃. Each antibody was captured onto the sensor surface by anti-human Fc. […] Sensor surface was regenerated each cycle with 3M MgCl₂.
(§2) The pH dependent interaction assessment was determined by a modified Biacore assay. Briefly, an additional dissociation phase at pH5.8 was integrated into the Biacore assay immediately after dissociation phase at pH7.4. This is to assess the pH-dependent dissociation between antibody and antigen from the complexes formed at pH7.4. The dissociation rate at pH5.8 buffer was determined by processing and fitting data using Scrubber 2.0 (BioLogic Software) curve fitting software.
The target is the same in assay [3]. The experiment in a line: cell-based or functional assay.
The target of assay [4] is T2, Recombinant rat sclerostin (rat, UniProt Q99P67 29-213).
T2 construct: Whole entry as named; also called rat-SOST
T2 sequence: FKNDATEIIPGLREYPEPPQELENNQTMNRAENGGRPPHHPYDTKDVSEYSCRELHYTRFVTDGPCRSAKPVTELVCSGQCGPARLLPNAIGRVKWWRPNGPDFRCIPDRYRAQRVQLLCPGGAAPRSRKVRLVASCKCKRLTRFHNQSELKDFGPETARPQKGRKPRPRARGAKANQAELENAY
The experiment in a line: SPR (Biacore T200), 37 C, dissociation at pH 5.8 of complex formed at pH 7.4.
Method: as §1, §2

For assay [5], the target named is T3, Recombinant mouse sclerostin (mouse, UniProt Q99P68 24-211).
T3 construct: Whole entry as named; also called mouse-SOST
T3 sequence: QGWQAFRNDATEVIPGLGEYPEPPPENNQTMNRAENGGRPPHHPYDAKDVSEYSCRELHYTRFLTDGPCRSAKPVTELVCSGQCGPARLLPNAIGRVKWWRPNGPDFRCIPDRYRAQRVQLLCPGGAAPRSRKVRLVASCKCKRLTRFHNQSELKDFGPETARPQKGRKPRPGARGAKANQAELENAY
The assay is described as above.
Method: as §1, §2

The target of assay [6] is T1, Recombinant human sclerostin. Described as above.
Method: as §1, §2
Assay [7] deals with T4, Recombinant cynomolgus monkey sclerostin (cynomolgus monkey, UniProt Q9BG78 24-213 (Chlorocebus aethiops entry)).
T4 construct: Whole entry as named; expressed and purified as the human counterpart; also called cyno-SOST; cyno SOST
T4 chain: T1 sequence with P70Q, E129A, T161P, S178G
The description is as above.
Method: as §1, §2

Assay [8] concerns the target T3, Recombinant mouse sclerostin. Briefly: cell-based or functional assay.
The target is the same in assay [9]. Briefly: cell-based or functional assay. This is another data set of the same source.
Assay [10] has as its target T4, Recombinant cynomolgus monkey sclerostin. Briefly: cell-based or functional assay.
For assay [11], the target named is T1, Recombinant human sclerostin. The experiment in a line: SPR; captured antibody, recombinant human SOST as analyte; response normalised by the capture level of the antibody [panel abL081].
For assay [12] the target is unchanged. The experiment in a line: SPR; captured antibody (SG1/SK1 constant regions), recombinant human SOST as analyte; response normalised by the capture level of the antibody [panel A-A-B].
The target is the same in assay [13]. The experiment in a line: SPR; captured antibody, recombinant human SOST as analyte; response normalised by the capture level of the antibody [panel abL063].
The target is the same in assay [14]. The experiment in a line: SPR; captured antibody (SG1/SK1 constant regions), recombinant human SOST as analyte; response normalised by the capture level of the antibody [panel B-B-A].
For assay [15] the target is unchanged. The experiment in a line: SPR; captured antibody (SG1/SK1 constant regions), recombinant human SOST as analyte; response normalised by the capture level of the antibody [panel A-B-B].

B1: mabB heavy chain combined with light chain variant B-A-B (antibody, human IgG1, kappa, V domains shown)
VH: QVQLVQSGAEVKKPGASVKVSCKVSGFPIKDTFQHWVRQAPGKGLEWMGWSDPEIGDTEYASKFQGRVTMTEDTSTDTAYMELSSLRSEDTAVYYCATGDTTYKFDFWGQGTTVTVSS
VL: DIQMTQSPSSLSASVGDRVTITCKASQDVHTAVAWYQQKPGKAPKLLIYYTSRLLSGVPSRFSGSGSGTDFTLTISSLQPEDFATYYCQQYSDYPWTFGGGTKVEIKR
notes: also called B-A-B with the mabB heavy chain
On to B1, for which, in assay [1], the binding result is reported as “binds”.

B2: amH848/bsH638/abL152 (bispecific antibody)
heavy 1: not shown
heavy 2: not shown
VL: DIQMTQSPSSLSASVGDRVTITCRASEGIHDALAWYQQKPGKAPKLLIYWASTLESGVPSRFSGSGSGTDFTLTISSLQPEDFATYYCQQGDTLPYTFGGGTKVEIK
notes: Biparatopic, common light chain
As to B2, in assay [2], the dissociation rate constant (koff) came out at 0.1 s⁻¹.

B3: amH852/bsH638/abL152 (bispecific antibody)
heavy 1: not shown
heavy 2: not shown
VL: B2 VL
notes: as for B2
Consider B3, for which, in assay [3], the “IC50 (read off the curve); Wnt1-induced TCF/LEF luciferase reporter in HEK293T cells, % Inhibition of human SOST” value was approximately 10 µg/mL. The koff in [2] amounted to 0.028 s⁻¹.

B4: mabA_pH2 (antibody, V domains shown)
VH: EVQLVQSGAEVKKPGASVKVSCKASGYTFTDYNMHWVRQAPGQGLEWMGEINPNSGHAGYNQKFKGRVTMTTDTSTSTAYMELRSLRSDDTAVYYCARLHYDHIYDDWYFDVWGQGTTVTVSS
VL: B2 VL with E27H, G28D, H30S, D31N, A32Y, A34N, W50Y, A51T, T53R, E55L
For B4, the koff in assay [4] amounted to 0.00486 s⁻¹; in assay [5], 0.00805 s⁻¹.

B5: amH852/bsH656/abL152 (bispecific antibody)
heavy 1: not shown
heavy 2: not shown
VL: B2 VL
For the molecule B5, the “IC50 (read off the curve); Wnt1-induced TCF/LEF luciferase reporter in HEK293T cells, % Inhibition of human SOST” value in assay [3] is approximately 10 µg/mL.

B6: mabA_NpH1 (antibody, V domains shown)
VH: B4 VH with H57G, H100G, H103D, D111H
VL: B2 VL with E27Q, G28D, H30S, D31N, A32Y, A34N, W50H, A51T, T53R, E55L
For B6, the koff in [6] came out at 0.00214 s⁻¹; in assay [7], 0.00182 s⁻¹; in assay [4], 0.000805 s⁻¹; in assay [5], 0.00191 s⁻¹.

B7: mabB//mabA_pH2-BS01 (bispecific antibody, human IgG1, kappa)
heavy 1: QVQLVQSGAEVKKPGASVKVSCKVSGFPIKHHFQHWVRQAPGKGLEWMGWSDPEIGDTEYASKFQGRVTMTEDTSTDTAYMELSSLRSEDTAVYYCATGHTTYKFDFWGQGTTVTVSSASTKGPSVFPLAPSSRSTSESTAALGCLVKDYFPEPVTVSWNSGALTSGVHTFPAVLQSSGLYSLSSVVTVPSSSLGTKTYTCNVDHKPSNTKVDKRVEPKSCDKTHTCPPCPAPELLGGPSVFLFPPKPKDTLMISRTPEVTCVVVDVSQEDPEVQFNWYVDGVEVHNAKTKPREEQFNSTYRVVSVLTVLHQDWLNGKEYKCKVSNKGLPSSIEKTISKAKGQPREPQVYTLPPSREEMTKNQVSLTCLVKGFYPSDIAVEWESNGQPENNYKTTPPYLDSDGSFFLYSKLTVDKSRWQQGNVFSCSVMHEALHNHYTQESLSLSP
light 1: DIQMTQSPSSLSASVGDRVTITCKASQDVHTAVAWYQQKPGKAPKLLIYWASTRWTGVPSRFSGSGSGTDFTLTISSLQPEDFATYYCQQYSDYHWTFGGGTKVEIKRTVAAPSVFIFPPSDEQLKSGTASVVCLLNNFYPREAKVQWKVDNALQSGNSQESVTEQDSKDSTYSLSSTLTLSKADYEKHKVYACEVTHQGLSSPVTKSFNRGEC
heavy 2: EVQLVQSGAEVKKPGASVKVSCKASGYTFTDYNMHWVRQAPGQGLEWMGEINPHSGHAGYNQKFKGRVTMTTDTSTSTAYMELRSLRSDDTAVYYCARLHYDDIHDDWYFDVWGQGTTVTVSSASTKGPSVFPLAPSSRSTSESTAALGCLVKDYFPEPVTVSWNSGALTSGVHTFPAVLQSSGLYSLSSVVTVPSSSLGTKTYTCNVDHKPSNTKVDKRVEPKSCDKTHTCPPCPAPELLGGPSVFLFPPKPKDTLMISRTPEVTCVVVDVSQEDPEVQFNWYVDGVEVHNAKTKPREEQFNSTYRVVSVLTVLHQDWLNGKEYKCKVSNKGLPSSIEKTISKAKGQPREPQVYTLPPSRKEMTKNQVSLTCLVKGFYPSDIAVEWESNGQPENNYKTTPPYLDSDGSFFLYSKLTVDKSRWQQGNVFSCSVMHEALHNHYTQKSLSLSP
light 2: not shown
B7: the “MFI of pHrodo-Red-labelled mouse sclerostin taken up into MDCK cells expressing human Fc gamma receptor IIB and human FcRn (flow cytometry)” value in [8] is 1960 MFI. For the same molecule, the “IC50 (read off the curve); Wnt1-induced TCF/LEF luciferase reporter in HEK293T cells, % Inhibition of mouse SOST” value in assay [9] was approximately 9 µg/mL.

B8: mabA-hG2 (antibody, human IgG2, kappa, V domains shown)
VH: B4 VH with H57G, H100G, H103D
VL: DIQMTQSPSSLSASVGDRVTITCRASQDISNYLNWYQQKPGKAPKLLIYYTSRLLSGVPSRFSGSGSGTDFTLTISSLQPEDFATYYCQQGDTLPYTFGGGTKVEIKR
As for B8, the “IC50 (read off the curve); Wnt1-induced TCF/LEF luciferase reporter in HEK293T cells, % Inhibition of monkey SOST” value in assay [10] is approximately 4 µg/mL.

B9: mabB heavy chain combined with light chain variant abL081 (antibody, human IgG1, kappa, V domains shown)
VH: B1 VH
VL: B8 VL with S30H, N31T, N34A, Y50W, T51A, R53T, L54R, L55W
notes: also called abL081 with the mabB heavy chain
Turning to B9, the binding result in [11] is given as “binds”.

B10: mabB heavy chain combined with light chain variant A-A-B (antibody, human IgG1, kappa, V domains shown)
VH: B1 VH
VL: B8 VL with G91Y, D92S, T93D, L94Y, Y96W
notes: also called A-A-B with the mabB heavy chain
For B10, the binding result in assay [12] is listed as “binds”.

B11: mabA heavy chain combined with light chain variant A-A-B (antibody, human IgG1, kappa, V domains shown)
VH: B4 VH with H57G, H100G, H103D
VL: B8 VL with G91Y, D92S, T93D, L94Y, Y96W
notes: also called A-A-B with the mabA heavy chain
Turning to B11, the binding result in assay [12] is reported as “no binding”.

B12: mabB heavy chain combined with light chain variant abL063 (antibody, human IgG1, kappa, V domains shown)
VH: B1 VH
VL: B8 VL with N31T, Y32A, N34A, Y50W, T51A, R53T, L55W
notes: also called abL063 with the mabB heavy chain
Consider B12, for which the binding result in assay [13] was “binds”.

B13: mabB heavy chain combined with light chain variant B-B-A (antibody, human IgG1, kappa, V domains shown)
VH: B1 VH
VL: DIQMTQSPSSLSASVGDRVTITCKASQDVHTAVAWYQQKPGKAPKLLIYWASTRWTGVPSRFSGSGSGTDFTLTISSLQPEDFATYYCQQGDTLPYTFGGGTKVEIKR
notes: also called B-B-A with the mabB heavy chain
For the molecule B13, the binding result in assay [14] is given as “binds”.

B14: mabB heavy chain combined with light chain variant A-B-B (antibody, human IgG1, kappa, V domains shown)
VH: B1 VH
VL: DIQMTQSPSSLSASVGDRVTITCRASQDISNYLNWYQQKPGKAPKLLIYWASTRWTGVPSRFSGSGSGTDFTLTISSLQPEDFATYYCQQYSDYPWTFGGGTKVEIKR
notes: also called A-B-B with the mabB heavy chain
Consider B14, for which, in assay [15], the binding result was “binds”.
